Data: paper PMC10281526, “Polydom/SVEP1 binds to Tie1 and promotes migration of lymphatic endothelial cells” (The Journal of Cell Biology, 2023)
One block for each molecule: values may come before it.

Assays:
[1] = biological target: recombinant Tie1 extracellular domain, Fc fusion protein (UniProt P35590)
[2] = biological target: T1, recombinant full-length mouse Polydom (mouse, UniProt A2AVA0 18-3567); assay: ELISA; reverse solid-phase binding assay, titration: full-length Polydom coated (10 nM by the legend), serially diluted Tie1-Fc or Tie2-Fc in solution, detected with HRP anti-human IgG against the Fc tag; apparent dissociation constant; details: both partners purified
T1 construct: Polydom (SVEP1), mouse, full length; expression vector as in Sato-Nishiuchi et al., 2012; The construct is described in Sato-Nishiuchi et al., 2012; also called SVEP1; full-length Polydom

Tie2 = biological target: T2, Tie2 (Homo sapiens (Human), UniProt Q02763); assay: solid-phase ELISA, Tie-Fc dimers on coated SVEP1
T2 chain: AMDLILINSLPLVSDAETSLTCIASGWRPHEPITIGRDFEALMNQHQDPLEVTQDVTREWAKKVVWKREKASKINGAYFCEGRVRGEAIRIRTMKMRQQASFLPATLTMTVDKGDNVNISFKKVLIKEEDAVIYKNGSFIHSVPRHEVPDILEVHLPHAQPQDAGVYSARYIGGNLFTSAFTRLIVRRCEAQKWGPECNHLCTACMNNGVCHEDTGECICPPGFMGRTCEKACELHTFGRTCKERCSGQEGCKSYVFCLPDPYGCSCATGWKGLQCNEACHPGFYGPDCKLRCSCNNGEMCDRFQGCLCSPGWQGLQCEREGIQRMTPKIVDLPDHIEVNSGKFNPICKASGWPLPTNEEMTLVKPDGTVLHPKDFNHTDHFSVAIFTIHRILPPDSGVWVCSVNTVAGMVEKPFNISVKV

T1 sequence (A2AVA0 18-3567): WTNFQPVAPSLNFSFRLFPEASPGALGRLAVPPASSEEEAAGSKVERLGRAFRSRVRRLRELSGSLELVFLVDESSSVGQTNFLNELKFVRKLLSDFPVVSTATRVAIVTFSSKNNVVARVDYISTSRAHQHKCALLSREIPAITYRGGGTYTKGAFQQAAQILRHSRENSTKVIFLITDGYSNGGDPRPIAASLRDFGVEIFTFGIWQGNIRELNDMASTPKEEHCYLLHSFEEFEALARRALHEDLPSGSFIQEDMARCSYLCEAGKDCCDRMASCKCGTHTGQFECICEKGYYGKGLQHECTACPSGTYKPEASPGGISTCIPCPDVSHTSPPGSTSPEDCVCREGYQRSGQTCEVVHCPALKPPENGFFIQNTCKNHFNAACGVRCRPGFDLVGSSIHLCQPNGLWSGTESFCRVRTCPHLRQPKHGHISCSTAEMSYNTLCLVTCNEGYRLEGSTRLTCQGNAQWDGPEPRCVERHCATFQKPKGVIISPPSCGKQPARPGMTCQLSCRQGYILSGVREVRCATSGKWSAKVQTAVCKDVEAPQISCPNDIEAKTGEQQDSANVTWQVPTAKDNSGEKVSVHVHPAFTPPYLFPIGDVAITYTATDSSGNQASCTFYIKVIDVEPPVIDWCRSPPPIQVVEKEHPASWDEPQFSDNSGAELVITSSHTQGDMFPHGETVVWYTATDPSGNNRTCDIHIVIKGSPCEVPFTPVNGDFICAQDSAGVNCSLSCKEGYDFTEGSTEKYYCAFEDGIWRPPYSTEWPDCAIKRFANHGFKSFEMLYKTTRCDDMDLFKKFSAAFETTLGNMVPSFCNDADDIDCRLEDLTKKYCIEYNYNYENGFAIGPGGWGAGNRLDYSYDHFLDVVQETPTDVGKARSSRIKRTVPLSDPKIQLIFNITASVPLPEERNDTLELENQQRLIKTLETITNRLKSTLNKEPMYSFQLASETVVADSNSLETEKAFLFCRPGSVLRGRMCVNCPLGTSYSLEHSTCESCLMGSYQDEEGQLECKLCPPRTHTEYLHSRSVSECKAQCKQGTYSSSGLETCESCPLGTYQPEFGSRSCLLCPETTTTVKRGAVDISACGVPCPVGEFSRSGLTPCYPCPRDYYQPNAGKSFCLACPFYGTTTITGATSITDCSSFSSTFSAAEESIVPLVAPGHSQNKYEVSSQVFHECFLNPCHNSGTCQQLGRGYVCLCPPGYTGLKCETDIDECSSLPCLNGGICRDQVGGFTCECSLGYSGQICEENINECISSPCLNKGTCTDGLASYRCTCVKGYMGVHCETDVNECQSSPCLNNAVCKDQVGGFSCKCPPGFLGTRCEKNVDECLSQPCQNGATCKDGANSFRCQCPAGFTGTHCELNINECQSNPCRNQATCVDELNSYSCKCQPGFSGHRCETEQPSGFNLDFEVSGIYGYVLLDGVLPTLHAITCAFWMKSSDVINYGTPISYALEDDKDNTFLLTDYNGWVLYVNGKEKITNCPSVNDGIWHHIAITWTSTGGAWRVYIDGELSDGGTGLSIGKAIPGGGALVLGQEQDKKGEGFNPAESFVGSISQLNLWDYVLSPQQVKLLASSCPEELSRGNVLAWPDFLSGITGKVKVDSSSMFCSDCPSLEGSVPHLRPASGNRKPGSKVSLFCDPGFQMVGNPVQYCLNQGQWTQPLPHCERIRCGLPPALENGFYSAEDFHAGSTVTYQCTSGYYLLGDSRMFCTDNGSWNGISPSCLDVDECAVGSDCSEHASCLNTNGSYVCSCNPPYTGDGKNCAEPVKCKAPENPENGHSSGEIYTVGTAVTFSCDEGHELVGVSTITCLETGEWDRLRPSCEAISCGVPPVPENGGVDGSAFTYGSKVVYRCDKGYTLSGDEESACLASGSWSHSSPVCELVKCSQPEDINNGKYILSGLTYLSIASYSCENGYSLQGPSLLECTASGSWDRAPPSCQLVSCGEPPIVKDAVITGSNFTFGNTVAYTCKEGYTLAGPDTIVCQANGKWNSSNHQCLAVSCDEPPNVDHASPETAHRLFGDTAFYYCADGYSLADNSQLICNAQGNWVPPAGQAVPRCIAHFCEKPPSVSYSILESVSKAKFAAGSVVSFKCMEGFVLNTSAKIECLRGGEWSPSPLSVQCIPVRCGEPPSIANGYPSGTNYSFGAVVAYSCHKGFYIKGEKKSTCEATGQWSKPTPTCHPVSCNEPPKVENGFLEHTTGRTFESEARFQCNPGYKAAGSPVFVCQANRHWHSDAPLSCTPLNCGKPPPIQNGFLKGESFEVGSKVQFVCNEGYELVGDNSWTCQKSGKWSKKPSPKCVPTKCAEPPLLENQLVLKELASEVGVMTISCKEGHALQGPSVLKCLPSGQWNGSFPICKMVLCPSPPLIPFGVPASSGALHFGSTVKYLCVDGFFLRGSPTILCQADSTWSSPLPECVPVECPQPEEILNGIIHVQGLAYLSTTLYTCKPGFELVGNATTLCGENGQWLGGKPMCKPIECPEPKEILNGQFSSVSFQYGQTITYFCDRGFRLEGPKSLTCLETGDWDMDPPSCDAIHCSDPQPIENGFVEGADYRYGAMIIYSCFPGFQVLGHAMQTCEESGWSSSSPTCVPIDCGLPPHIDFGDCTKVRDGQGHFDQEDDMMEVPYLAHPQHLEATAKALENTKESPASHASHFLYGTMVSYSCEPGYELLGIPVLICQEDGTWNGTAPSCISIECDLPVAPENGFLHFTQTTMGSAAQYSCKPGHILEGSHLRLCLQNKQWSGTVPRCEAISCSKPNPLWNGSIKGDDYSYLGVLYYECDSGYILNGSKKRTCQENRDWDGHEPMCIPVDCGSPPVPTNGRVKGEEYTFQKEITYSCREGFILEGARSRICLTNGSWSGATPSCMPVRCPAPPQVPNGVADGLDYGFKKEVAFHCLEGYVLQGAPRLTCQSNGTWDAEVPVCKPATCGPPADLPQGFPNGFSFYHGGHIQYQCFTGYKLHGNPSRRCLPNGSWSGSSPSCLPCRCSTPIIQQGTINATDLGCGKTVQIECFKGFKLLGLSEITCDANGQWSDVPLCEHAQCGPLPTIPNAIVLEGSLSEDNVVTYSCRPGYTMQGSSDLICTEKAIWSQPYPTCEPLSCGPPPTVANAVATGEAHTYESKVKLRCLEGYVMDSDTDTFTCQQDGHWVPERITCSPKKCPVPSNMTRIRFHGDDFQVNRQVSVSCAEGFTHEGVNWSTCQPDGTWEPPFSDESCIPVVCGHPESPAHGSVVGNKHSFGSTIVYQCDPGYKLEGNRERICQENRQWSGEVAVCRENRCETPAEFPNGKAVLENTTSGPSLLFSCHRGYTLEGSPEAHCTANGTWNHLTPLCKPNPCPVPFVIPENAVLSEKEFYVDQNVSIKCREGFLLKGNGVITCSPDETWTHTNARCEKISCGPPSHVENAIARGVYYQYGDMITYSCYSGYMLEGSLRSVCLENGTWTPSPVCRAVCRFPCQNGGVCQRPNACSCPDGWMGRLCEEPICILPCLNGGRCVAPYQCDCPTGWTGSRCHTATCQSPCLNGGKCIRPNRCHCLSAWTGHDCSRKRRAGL

Transwell migration of human dermal LECs toward Polydom/E2567A (1 μg/ml) in the lower chamber, reduction compared with control Polydom [1]: 80%
Molecule: full-length Polydom E2567A mutant, A2AVA0 18-3567

Kd [2]: 43 ± 4 nM
B1: recombinant Tie1 extracellular domain, Fc fusion protein (Fc fusion, UniProt P35590 22-759, looked up)
chain: AVDLTLLANLRLTDPQRFFLTCVSGEAGAGRGSDAWGPPLLLEKDDRIVRTPPGPPLRLARNGSHQVTLRGFSKPSDLVGVFSCVGGAGARRTRVIYVHNSPGAHLLPDKVTHTVNKGDTAVLSARVHKEKQTDVIWKSNGSYFYTLDWHEAQDGRFLLQLPNVQPPSSGIYSATYLEASPLGSAFFRLIVRGCGAGRWGPGCTKECPGCLHGGVCHDHDGECVCPPGFTGTRCEQACREGRFGQSCQEQCPGISGCRGLTFCLPDPYGCSCGSGWRGSQCQEACAPGHFGADCRLQCQCQNGGTCDRFSGCVCPSGWHGVHCEKSDRIPQILNMASELEFNLETMPRINCAAAGNPFPVRGSIELRKPDGTVLLSTKAIVEPEKTTAEFEVPRLVLADSGFWECRVSTSGGQDSRRFKVNVKVPPVPLAAPRLLTKQSRQLVVSPLVSFSGDGPISTVRLHYRPQDSTMDWSTIVVDPSENVTLMNLRPKTGYSVRVQLSRPGEGGEGAWGPPTLMTTDCPEPLLQPWLEGWHVEGTDRLRVSWSLPLVPGPLVGDGFLLRLWDGTRGQERRENVSSPQARTALLTGLTPGTHYQLDVQLYHCTLLGPASPPAHVLLPPSGPPAPRHLHAQALSDSEIQLTWKHPEALPGPISKYVVEVQVAGGAGDPLWIDVDRPEETSTIIRGLNASTRYLFRMRASIQGLGDWSNTVEESTLGNGLQAEGPVQESRAAEEGLDQ
notes: Tie1, extracellular domain, expressed as Fc fusion protein; The Fc tag was detected with an anti-human IgG antibody; also called Tie1 with an Fc tag; source: bought: R&D Systems

Kd (Tie2): > 500 nM
B2: SVEP1 (protein)
chain: DAIHCSDPQPIENGFVEGADYRYGAMIIYSCFPGFQVLGHAMQTCEESGWSSSSPTCVPID
